Our source for the fold increase in luminescence over 66C alone values is paper PMC5110118.

The experiment concerns the target C-terminal NanoLuc luciferase fragment, residues 66–171 (66C), bacterial construct. Kind of experiment: split reporter.

Consider “N-terminal NanoLuc luciferase fragment, residues 1–65 (N65), bacterial construct (domain or fragment)”, for which the fold increase in luminescence over 66C alone was determined as 10 fold.
